From paper PMC7026663 (Nucleic Acids Research, 2019)

Tests used:
H2A/H2B dimer = H2A/H2B dimer (UniProt P06897;P02281); test: ITC
H3/H4 tetramer = H3/H4 tetramer (UniProt P84233;P62799); test: ITC

B1: AtFKBP53 NTD (residues 1–112) (domain or fragment)
chain: MGFWGLEVKPGKPQAYNPKNEQGKIHVTQATLGTGLSKEKSVIQCSIGDKAPIALCSLLPNKIECCPLNLEFDDDDEPVEFTVTGDRSIHLSGFLEYYQDDEDDYEHDEDDS
- stoichiometry N (H2A/H2B dimer): 1
- stoichiometry N (H3/H4 tetramer): 1
